Experimental data taken from PMC8485043.
“And” between values parts separate entries of the source, which are not always exact repeats. Identical values can stand only once.

Biological target: VDAC-ΔC, C-terminally truncated variant of Neurospora crassa VDAC lacking residues 269-283 (β19) (Neurospora crassa)
Test: SEC-MALS; protein folded in DM, no sterol; UV, MALS and differential refractive index detectors, protein-conjugate analysis in ASTRA

VDAC-ΔC, C-terminally truncated variant of Neurospora crassa VDAC lacking residues 269-283 (β19) (domain or fragment)
stoichiometry N: 2 and 4
